Key:
Crm1 = target: T1, Crm1 (human, UniProt O14980 1-1071); experiment: cryo-EM structure; purified RanBP2^RBD4/SUMO1^Q94P-RanGAP1/Ubc9 incubated with excess Crm1 and Ran^Q69L(GTP), gel filtration in 20 mM HEPES pH 7.4, 110 mM potassium acetate, 2 mM magnesium acetate, 1 mM TCEP; lightly crosslinked with 250 µM BS3; 0.1% CHAPSO; 9.7 mg/mL; conditions: both partners purified
T1 construct: Crm1 (exportin), human, full length, wild type; also called exportin Crm1; source: E. coli BL21(DE3) SoluBL21 with Codon Plus (RIL) plasmid, purified (Ni-NTA, Ulp1 cleavage, Superdex 200, MonoQ); not shown: His6, N-terminal, cleaved; Smt3, N-terminal, cleaved
T1 sequence (O14980 whole entry): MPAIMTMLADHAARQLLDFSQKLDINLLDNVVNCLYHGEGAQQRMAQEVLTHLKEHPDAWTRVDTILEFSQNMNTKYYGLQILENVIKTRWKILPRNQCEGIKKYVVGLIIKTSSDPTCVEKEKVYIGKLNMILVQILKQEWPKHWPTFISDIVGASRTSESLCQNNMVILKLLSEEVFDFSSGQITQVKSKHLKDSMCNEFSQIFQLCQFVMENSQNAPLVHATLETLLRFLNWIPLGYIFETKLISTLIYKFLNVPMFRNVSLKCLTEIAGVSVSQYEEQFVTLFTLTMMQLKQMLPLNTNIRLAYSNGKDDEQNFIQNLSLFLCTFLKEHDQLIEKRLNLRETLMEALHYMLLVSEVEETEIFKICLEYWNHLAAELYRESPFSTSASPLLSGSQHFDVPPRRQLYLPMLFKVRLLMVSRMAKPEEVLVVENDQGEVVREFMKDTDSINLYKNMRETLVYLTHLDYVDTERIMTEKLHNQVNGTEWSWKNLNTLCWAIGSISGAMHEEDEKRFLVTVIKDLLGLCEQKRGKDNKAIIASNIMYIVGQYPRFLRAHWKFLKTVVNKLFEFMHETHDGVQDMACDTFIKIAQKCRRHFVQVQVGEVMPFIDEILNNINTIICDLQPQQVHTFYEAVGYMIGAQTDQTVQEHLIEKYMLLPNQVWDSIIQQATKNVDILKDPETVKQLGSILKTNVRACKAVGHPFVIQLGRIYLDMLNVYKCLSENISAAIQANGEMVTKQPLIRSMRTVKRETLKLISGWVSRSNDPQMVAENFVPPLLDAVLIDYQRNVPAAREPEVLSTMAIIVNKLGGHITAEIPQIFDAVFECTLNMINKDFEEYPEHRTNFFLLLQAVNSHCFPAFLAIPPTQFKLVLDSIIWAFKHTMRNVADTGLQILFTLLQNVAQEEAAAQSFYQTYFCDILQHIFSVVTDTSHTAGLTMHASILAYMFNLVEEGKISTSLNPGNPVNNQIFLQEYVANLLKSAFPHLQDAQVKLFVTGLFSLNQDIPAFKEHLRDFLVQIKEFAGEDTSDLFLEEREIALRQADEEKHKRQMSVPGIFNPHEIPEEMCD

Ran^Q69L(GTP) = Ran^Q69L(GTP) (human, UniProt P62826 1-216, Q69L); experiment: as above; conditions: both partners purified

B1: RanBP2^2446-3060 (RanBP2^RBD4) (domain or fragment, human, UniProt P49792 2446-3060, looked up)
chain: DSLITPHVSRSSTPRESPCGKIAVAVLEETTRERTDVIQGDDVADATSEVEVSSTSETTPKAVVSPPKFVFGSESVKSIFSSEKSKPFAFGNSSATGSLFGFSFNAPLKSNNSETSSVAQSGSESKVEPKKCELSKNSDIEQSSDSKVKNLFASFPTEESSINYTFKTPEKAKEKKKPEDSPSDDDVLIVYELTPTAEQKALATKLKLPPTFFCYKNRPDYVSEEEEDDEDFETAVKKLNGKLYLDGSEKCRPLEENTADNEKECIIVWEKKPTVEEKAKADTLKLPPTFFCGVCSDTDEDNGNGEDFQSELQKVQEAQKSQTEEITSTTDSVYTGGTEVMVPSFCKSEEPDSITKSISSPSVSSETMDKPVDLSTRKEIDTDSTSQGESKIVSFGFGSSTGLSFADLASSNSGDFAFGSKDKNFQWANTGAAVFGTQSVGTQSAGKVGEDEDGSDEEVVHNEDIHFEPIVSLPEVEVKSGEEDEEILFKERAKLYRWDRDVSQWKERGVGDIKILWHTMKNYYRILMRRDQVFKVCANHVITKTMELKPLNVSNNALVWTASDYADGEAKVEQLAVRFKTKEVADCFKKTFEECQQNLMKLQKGHVSLAAELSK
notes: RanBP2 (Nup358), human, residues 2446-3060: FG1, IR1-M-IR2, FG2 and RBD4; also called RanBP2 FG1-IR1-M-IR2-FG2-RBD4 fragment; hRanBP2^RBD4; source: E. coli BL21(DE3) Codon Plus (RIL), purified (Ni-NTA, Superdex 200)
- binding result (Crm1): binds
- binding result (Ran^Q69L(GTP)): binds
